Data on three sequences can be found in the Immune Epitope Database (IEDB).

Some results are limits rather than exact numbers.

The target of assay [1] is HLA-A*01:01. The experiment in a line: IEDB peptide-MHC binding, purified MHC/competitive/fluorescence; filed as Kd, often an IC50 or EC50 that approximates it; ≥ and ≤ were set here for values at or beyond the usual limits of such assays. Particulars: source organism: Pseudomonas aeruginosa UCBPP-PA14.
For assay [2], the target named is HLA-A*02:01. The description is as above. To be noted: source organism: Pseudomonas aeruginosa UCBPP-PA14.
Another assay concerns the target HLA-A*02:06. The description is as above. Particulars: source organism: Pseudomonas aeruginosa UCBPP-PA14.
The target of assay [3] is HLA-A*02:11. The assay is described as above. To be noted: source organism: Pseudomonas aeruginosa UCBPP-PA14.
A further assay has as its target HLA-A*02:12. The assay is described as above. Particulars: source organism: Pseudomonas aeruginosa UCBPP-PA14.
The target of the next assay is HLA-A*02:16. Described as above. Particulars: source organism: Pseudomonas aeruginosa UCBPP-PA14.
Another assay concerns the target HLA-A*02:19. Described as above. To be noted: source organism: Pseudomonas aeruginosa UCBPP-PA14.
Another assay addresses HLA-A*02:50. The assay is described as above.
For assay [4], the target named is HLA-A*03:01. Described as above. Particulars: source organism: Pseudomonas aeruginosa UCBPP-PA14.
The target of assay [5] is HLA-A*11:01. The assay is described as above. Particulars: source organism: Pseudomonas aeruginosa UCBPP-PA14.
For another assay, the target named is HLA-A*24:02. The assay is described as above. To be noted: source organism: Pseudomonas aeruginosa UCBPP-PA14.
Assay [6] deals with HLA-A*26:01. The description is as above. Particulars: source organism: Pseudomonas aeruginosa UCBPP-PA14.
The target of a further assay is HLA-A*30:01. The description is as above. Particulars: source organism: Pseudomonas aeruginosa UCBPP-PA14.
Assay [7] concerns the target HLA-A*31:01. The description is as above. Particulars: source organism: Pseudomonas aeruginosa UCBPP-PA14.
The target in assay [8] is HLA-A*69:01. The description is as above. To be noted: source organism: Pseudomonas aeruginosa UCBPP-PA14.
Assay [9] has as its target HLA-B*07:02. The assay is described as above. Particulars: source organism: Pseudomonas aeruginosa UCBPP-PA14.
In assay [10] the target is HLA-B*15:01. The description is as above. To be noted: source organism: Pseudomonas aeruginosa UCBPP-PA14.
The target of the next assay is HLA-B*18:01. The assay is described as above. To be noted: source organism: Pseudomonas aeruginosa UCBPP-PA14.
Assay [11] addresses HLA-B*27:05. Described as above. Particulars: source organism: Pseudomonas aeruginosa UCBPP-PA14.
The target of a further assay is HLA-B*35:01. The description is as above. Particulars: source organism: Pseudomonas aeruginosa UCBPP-PA14.
The target of assay [12] is HLA-B*40:01. The assay is described as above. To be noted: source organism: Pseudomonas aeruginosa UCBPP-PA14.
The target in a further assay is HLA-B*46:01. Described as above. To be noted: source organism: Pseudomonas aeruginosa UCBPP-PA14.
Assay [13] deals with HLA-B*58:01. Described as above. To be noted: source organism: Pseudomonas aeruginosa UCBPP-PA14.
For assay [14], the target named is HLA-A*02:01. The experiment in a line: IEDB peptide-MHC binding, purified MHC/direct/fluorescence; filed as Kd, often an IC50 or EC50 that approximates it; ≥ and ≤ were set here for values at or beyond the usual limits of such assays.
The target in assay [15] is HLA-A*02:11. The assay is described as above. To be noted: source organism: Yersinia enterocolitica subsp. enterocolitica 8081.
Assay [16] deals with HLA-A*69:01. Described as above.
In assay [17] the target is HLA-A*01:01. Described as above. Particulars: source organism: Escherichia coli 536.
The target in assay [18] is HLA-A*03:01. The description is as above. To be noted: source organism: Escherichia coli.
The target of assay [19] is HLA-A*11:01. The description is as above. To be noted: source organism: Escherichia coli 536.
The target of assay [20] is HLA-A*26:01. The assay is described as above. To be noted: source organism: Escherichia coli 536.
Assay [21] addresses HLA-A*31:01. Described as above. To be noted: source organism: Escherichia coli 536.
Assay [22] has as its target HLA-B*07:02. Described as above. Particulars: source organism: Escherichia coli 536.
The next assay concerns the target HLA-B*08:01. The description is as above. Particulars: source organism: Escherichia coli 536.
In assay [23] the target is HLA-B*15:01. Described as above. Particulars: source organism: Escherichia coli.
Assay [24] deals with HLA-B*27:05. Described as above. Particulars: source organism: Escherichia coli 536.
Assay [25] has as its target HLA-B*40:01. The description is as above. Particulars: source organism: Escherichia coli 536.
Assay [26] concerns the target HLA-B*58:01. Described as above. Particulars: source organism: Escherichia coli 536.
Where [27] appears, read: source organism: Yersinia pestis.
[28] abbreviates: source organism: Escherichia coli.

As to FLDDASNSA, the Kd is ≥ 20000 nM with HLA-A*01:01 [1]; 41.4 nM with HLA-A*02:01 [2]; 6.7 nM with HLA-A*02:06; 0.5 nM in the assay with HLA-A*02:11 [3]; 2.2 nM with HLA-A*02:12; 1.6 nM with HLA-A*02:16. Moreover, the Kd with HLA-A*02:19 was 100 nM; in the assay with HLA-A*02:50 (source organism: Pseudomonas aeruginosa UCBPP-PA14), 5.3 nM; in the assay with HLA-A*03:01 [4], ≥ 20000 nM; in the assay with HLA-A*11:01 [5], ≥ 20000 nM; with HLA-A*24:02, ≥ 20000 nM; with HLA-A*26:01 [6] it was ≥ 20000 nM. Moreover, the dissociation constant Kd in the assay with HLA-A*30:01 is ≥ 20000 nM; in the assay with HLA-A*31:01 [7] it was ≥ 20000 nM; with HLA-A*69:01 [8] it was 1010 nM; with HLA-B*07:02 [9] it was ≥ 20000 nM; with HLA-B*15:01 [10], ≥ 20000 nM; with HLA-B*18:01, ≥ 20000 nM. Besides, the Kd with HLA-B*27:05 [11], with HLA-B*35:01, in the assay with HLA-B*40:01 [12], with HLA-B*46:01 and with HLA-B*58:01 [13] was ≥ 20000 nM throughout.

In the case of FLRFGDFKL, the Kd with HLA-A*02:01 [14] (setting [27]) is 5.5 nM; with HLA-A*02:11 [15], 104 nM; in the assay with HLA-A*69:01 [16] (setting [27]) it was 18300 nM; with HLA-A*02:50 (source organism: Yersinia pestis Nepal516), ≤ 0.1 nM.

Consider RMYGISPWT, for which the Kd is ≥ 20000 nM in the assay with HLA-A*01:01 [17]; 507 nM with HLA-A*02:01 [14] (setting [28]); 799 nM with HLA-A*03:01 [18]; ≥ 20000 nM in the assay with HLA-A*11:01 [19]; ≥ 20000 nM with HLA-A*26:01 [20]; ≥ 20000 nM with HLA-A*31:01 [21]. Further, the equilibrium dissociation constant (Kd) with HLA-A*69:01 [16] (source organism: Escherichia coli 536) was ≥ 20000 nM; with HLA-B*07:02 [22], ≥ 20000 nM; with HLA-B*08:01 it was ≥ 20000 nM; in the assay with HLA-B*15:01 [23], 455 nM; with HLA-B*27:05 [24] it was ≥ 20000 nM; with HLA-B*40:01 [25], ≥ 20000 nM. Besides, the Kd with HLA-B*58:01 [26] was ≥ 20000 nM; with HLA-A*02:50 (setting [28]) it was 18.4 nM.

Broadly, the Kd is the concentration at which binding is half-saturated. Read a low Kd as higher affinity.
